The results in this text go back to patent US20150093336A1 (VIB VZW, published 2015).

The target of test [1] is T1, Recombinant mouse MMR (R&D systems) (mouse, UniProt Q61830 20-1388).
T1 construct: Antigen of the PE-ELISA and the SPR; also called mMMR; recombinant mMMR
T1 sequence: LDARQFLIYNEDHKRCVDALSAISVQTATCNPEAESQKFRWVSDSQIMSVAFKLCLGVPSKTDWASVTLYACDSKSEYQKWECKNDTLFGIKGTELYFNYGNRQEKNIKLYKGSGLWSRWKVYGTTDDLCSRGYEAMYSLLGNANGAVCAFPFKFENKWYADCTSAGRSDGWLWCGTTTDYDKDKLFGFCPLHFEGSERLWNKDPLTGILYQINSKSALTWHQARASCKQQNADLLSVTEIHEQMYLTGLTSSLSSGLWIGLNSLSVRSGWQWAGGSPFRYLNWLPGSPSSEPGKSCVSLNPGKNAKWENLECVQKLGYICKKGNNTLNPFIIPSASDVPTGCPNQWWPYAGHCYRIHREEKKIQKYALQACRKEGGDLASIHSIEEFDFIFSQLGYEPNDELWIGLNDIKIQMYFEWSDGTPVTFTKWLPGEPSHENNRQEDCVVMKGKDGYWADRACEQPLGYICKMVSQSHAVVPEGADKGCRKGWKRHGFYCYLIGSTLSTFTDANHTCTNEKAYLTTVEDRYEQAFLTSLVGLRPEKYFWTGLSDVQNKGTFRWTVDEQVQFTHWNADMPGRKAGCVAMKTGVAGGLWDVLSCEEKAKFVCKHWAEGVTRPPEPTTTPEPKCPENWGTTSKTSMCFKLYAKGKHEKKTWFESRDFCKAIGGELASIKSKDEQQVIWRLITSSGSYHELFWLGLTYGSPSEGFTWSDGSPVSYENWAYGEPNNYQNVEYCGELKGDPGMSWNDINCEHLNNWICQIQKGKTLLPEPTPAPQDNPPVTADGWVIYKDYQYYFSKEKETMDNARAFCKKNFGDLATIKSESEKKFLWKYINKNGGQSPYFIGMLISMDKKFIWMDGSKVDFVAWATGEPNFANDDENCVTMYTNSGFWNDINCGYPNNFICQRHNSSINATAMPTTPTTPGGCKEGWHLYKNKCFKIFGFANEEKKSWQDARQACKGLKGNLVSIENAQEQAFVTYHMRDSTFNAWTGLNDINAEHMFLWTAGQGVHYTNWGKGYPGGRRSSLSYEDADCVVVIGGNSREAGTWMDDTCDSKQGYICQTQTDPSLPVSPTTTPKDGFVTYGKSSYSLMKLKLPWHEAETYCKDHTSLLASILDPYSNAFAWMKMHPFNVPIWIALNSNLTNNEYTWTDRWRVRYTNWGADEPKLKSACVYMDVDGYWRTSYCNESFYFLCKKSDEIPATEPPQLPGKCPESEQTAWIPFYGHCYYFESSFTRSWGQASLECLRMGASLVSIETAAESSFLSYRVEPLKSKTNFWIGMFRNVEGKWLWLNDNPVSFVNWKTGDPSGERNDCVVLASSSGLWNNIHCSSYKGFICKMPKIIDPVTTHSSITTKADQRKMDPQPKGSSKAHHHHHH
The test is described as follows: SPR, BIAcore T100; mouse MMR on CM5 chip, sdAb as analyte. The method, then: (§1) Affinity analysis was performed using a BIAcore™ T100 (GE Healthcare) with HEPES-buffered saline running buffer (10 mM HEPES with 0.15 M NaCl, 3.4 mM EDTA and 0.005% surfactant P20 at pH 7.4). MRR was immobilized on a CM5 chip in acetate buffer 50 mM (pH 5.0), resulting in 2100 RU MMR coated on the chip. A second channel on the same chip was activated/deactivated in a similar way and served as a negative control. The MMR sdAbs were used as analytes in eleven different concentrations, ranging from 1 to 2000 nM, at a flow rate of […]. Glycine-HCl 50 mM (pH 2.0) was used for elution. The kinetic and equilibrium parameters (kd, ka and KD) values were calculated from the combined sensogram of all concentrations using BIAcore™ T100 evaluation software 2.02 (GE Healthcare).
(§2) The binding characteristics and affinity of selected Nbs towards the recombinant hMMR and recombinant mMMR antigen was examined in further detail using surface plasmon resonance. A combined sensogram was recorded for each Nb (example for NbhmMMRm3.49 in FIG. 5) and the kinetic and equilibrium parameters (kd, ka and KD) values were calculated (Table 4 and Table 5). Most but not all results on binding to mouse or human rMMR obtained via this SPR analysis are in agreement with the results obtained by PE-ELISA.

For test [2], the target named is T2, Recombinant human MMR (R&D systems) (human, UniProt P22897 19-1383).
T2 construct: Antigen of the PE-ELISA and the SPR; also called hMMR; recombinant hMMR
T2 sequence: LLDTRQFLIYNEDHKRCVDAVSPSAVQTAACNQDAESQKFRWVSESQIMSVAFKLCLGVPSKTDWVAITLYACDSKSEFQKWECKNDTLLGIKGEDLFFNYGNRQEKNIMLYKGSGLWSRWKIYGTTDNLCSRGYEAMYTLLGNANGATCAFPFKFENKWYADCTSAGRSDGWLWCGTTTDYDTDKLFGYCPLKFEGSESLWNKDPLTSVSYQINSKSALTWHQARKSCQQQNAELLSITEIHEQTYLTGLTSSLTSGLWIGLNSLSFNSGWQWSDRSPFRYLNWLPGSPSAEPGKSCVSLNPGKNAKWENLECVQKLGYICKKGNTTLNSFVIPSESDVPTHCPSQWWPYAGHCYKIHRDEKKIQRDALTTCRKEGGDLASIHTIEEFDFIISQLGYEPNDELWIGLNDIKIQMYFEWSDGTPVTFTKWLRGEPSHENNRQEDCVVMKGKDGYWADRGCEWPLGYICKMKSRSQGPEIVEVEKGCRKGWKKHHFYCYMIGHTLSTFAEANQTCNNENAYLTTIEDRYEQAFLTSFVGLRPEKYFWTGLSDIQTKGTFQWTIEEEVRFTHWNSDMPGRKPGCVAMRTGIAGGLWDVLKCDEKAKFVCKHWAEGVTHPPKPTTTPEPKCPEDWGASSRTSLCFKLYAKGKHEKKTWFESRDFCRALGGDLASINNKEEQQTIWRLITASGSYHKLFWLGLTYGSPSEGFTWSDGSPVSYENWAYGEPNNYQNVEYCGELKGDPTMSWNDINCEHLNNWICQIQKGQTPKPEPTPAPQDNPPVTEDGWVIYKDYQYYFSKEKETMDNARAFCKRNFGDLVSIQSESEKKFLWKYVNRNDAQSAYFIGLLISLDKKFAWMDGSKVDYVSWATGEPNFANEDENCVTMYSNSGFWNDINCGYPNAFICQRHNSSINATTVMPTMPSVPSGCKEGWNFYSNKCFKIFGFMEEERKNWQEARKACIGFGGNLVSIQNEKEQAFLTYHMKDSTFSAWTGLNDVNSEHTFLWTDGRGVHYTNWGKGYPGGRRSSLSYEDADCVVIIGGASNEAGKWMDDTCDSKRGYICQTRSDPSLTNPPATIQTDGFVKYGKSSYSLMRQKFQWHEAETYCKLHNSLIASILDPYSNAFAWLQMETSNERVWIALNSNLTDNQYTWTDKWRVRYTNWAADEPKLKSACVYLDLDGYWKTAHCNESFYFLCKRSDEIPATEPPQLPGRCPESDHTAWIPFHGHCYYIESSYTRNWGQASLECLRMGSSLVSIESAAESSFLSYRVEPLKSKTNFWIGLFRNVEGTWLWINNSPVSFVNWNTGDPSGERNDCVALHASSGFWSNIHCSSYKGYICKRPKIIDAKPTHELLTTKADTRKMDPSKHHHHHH
Kind of test: SPR, BIAcore T100; human MMR on CM5 chip, sdAb as analyte. How it is done:
as §1, §2

Test [3] concerns the target T2, Recombinant human MMR (R&D systems). Kind of test: PE-ELISA: periplasmic extract of the clone on plate-coated human MMR, OD405; background = irrelevant milk-blocking proteins. The method, then:
(§3) Specific sdAb phages were enriched by several consecutive rounds of in vitro selection on antigen coated to wells of microtiter plates (Nunc). For isolation of human/mouse MMR cross-reactive Nbs, screening was performed using human and mouse MMR alternatingly. Bound phage particles were eluted with 100 mM triethylamine (pH 11.0), immediately neutralized with 1 M Tris-HCl (pH 7.4) and used to infect E. coli TG1 cells. Individual colonies were picked and expression of recombinant sdAb-M13 protein III by addition of 1 mM isopropyl-β-D-thiogalac-topyranoside (IPTG). The periplasmic extract of each clone was subsequently tested in ELISA for human MMR recognition with non-specific antigen coated wells serving as a negative control. Human/mouse MMR cross-reactive Nbs were also screened in a similar fashion against mouse MMR, only clones reactive with both human and mouse antigens were withheld as cross-reactive Nbs. Each ELISA was performed on plates coated with 1 μg/ml MMR in 100 mM NaHCO₃ buffer pH=8.8. After coating the plates are washed with PBS+0.05% TWEEN®-20 (PBST) and blocked for 2 hours with PBS+0.05% TWEEN® 20+2% non-fat dry milk powder (Nestle) (PBSM). The PE extracts are then incubated for 1 hour on the plate and then washed with PBST followed by 1 hour incubation of 0.5 μg/ml mouse anti-HA tag antibody (16B12, Covance) in PBSM. After washing with PBST, 1.5 μg/ml alkaline phosphatase conjugated anti-mouse antibody (Sigma) in PBSM in added to the plate for 1 hour followed by PBST washing. Finally, the ELISA is developed using 2 mg/ml alkaline phosphatase substrate (Sigma) in AP-buffer (100 mM NaCl, 50 mM MgCl₂, 100 mM Tris pH=9.5) and the optical density signal at 405 nm is measured.
(§4) Next, anti-human/mouse MMR cross-reactive sdAbs were generated (see also Material and Method section). The anti-human/anti mouse MMR phage bank was alternatingly screened on human and mouse MMR for a total of four rounds, resulting in up to 100-fold enrichments for hMMR/mMMR reactive phages from the second panning round. Therefore, 188 colonies from the second and third rounds were selected for PE-expression. These PE-extracts were used in PE-ELISAs to determine which clones react effectively to MMR, clones were selected after the ELISA on hMMR (FIG. 2). These clones were then screened for binding on mouse MMR (FIG. 3).

Test [4] has as its target T1, Recombinant mouse MMR (R&D systems). Kind of test: PE-ELISA: periplasmic extract of the clone on plate-coated mouse MMR, OD405; background = irrelevant milk-blocking proteins. How it is done: as §3, §4

B1: NbhMMRm12.6 (VHH)
VHH: QVQLQESGGGLVQPGGSLRLSCVVSGSFLSINHMGWYRQVSGEQRELVAAITSGGSTNYADSVKGRFTISRDSAKNTVYLQMNSLKPEDTAVYYCNADALTMLPPFDFWGQGTQVTVSS
notes: Produced from pMECS with C-terminal HA and 6xHis tag
Consider B1, for which the binding result in test [1] is “no binding (tested: analyte 1 to 2000 nM)”. Further, in test [2], the Kd amounted to 8.2 nM, the koff came to 0.0012 s⁻¹ and the kon worked out at 150000 M⁻¹ s⁻¹.

B2: NbhmMMRm25.86 (VHH)
VHH: QVQLQESGGGLVQPGGSLRLSCAGSGFTVSTSMINWARQVPGKELEWLVDVLPSGSTYYADPVKGRFTISRDNAQNTIYLQMNYLKPEDTAIYYCAINRETMPPFRGQGTQVTVSS
notes: Only tested as periplasmic extract in PE-ELISA; clone carries C-terminal HA and 6xHis tag
On to B2, for which the binding result in test [3] and in test [4] was “binds” in each case.

B3: NbhmMMRm13.89 (VHH)
VHH: QVQLQESGGGLVQPGGSLRLSCAASGSIFSINAWGWYRQAPGKQRELVAEITSSGSTNYADSVKGRFTISGDNAKNSVYLHMNNLEPEDTAVYYCKAVAVTFTTPRSDYWGRGTQVTVSS
notes: as for B2
As to B3, the binding result in test [3] and in test [4] was “binds” throughout.

B4: NbhMMRm16.95 (VHH)
VHH: QVQLQESGGGLVQPGGSLGLSCAASGRIASISAMGWYRQAPGKQRELVAAITGSGRTNYADSVKGRFTISRDNAKNTVYLQMNSLKPEDTAVYYCNLLMVDYGLGLGTDYWGQGTQVTVSS
notes: as for B1
As to B4, the binding result in test [1] is given as “no binding (tested: analyte 1 to 2000 nM)”. Besides, in test [2], the Kd turned out to be 21 nM, the koff was determined as 0.0014 s⁻¹ and the kon is 66000 M⁻¹ s⁻¹.

B5: NbhmMMRm18.63 (VHH)
VHH: QVQLQESGGGLVQPGGSLRLSCAPSGSIISINAMAWYRQAPGKERELVAAISSGGSTYYADSVKGRFTISGDIAKNLLWLQMNSLKPEDTAMYYCAPGGGWRPGAWGQGTQVTVSS
notes: as for B2
As to B5, the binding result in test [3] and in test [4] was “binds” in each case.

B6: NbhMMRm11.5 (VHH)
VHH: QVQLQESGGGLVQPGGSLMLSCAASGNIFTINRMGWYRQAPGKQRELVAAITSGGNTNYADSVKGRFTISRDNAKNTVYLQMNSLKPEDTAVYYCNAAIVTMTSPYSDYWGQGTQVTVSS
notes: as for B1
Turning to B6, in test [1], the Kd is 120 nM, the koff was 0.019 s⁻¹ and the association rate constant (kon) came to 150000 M⁻¹ s⁻¹. In test [2], the dissociation constant (Kd) was 55 nM, the koff was 0.022 s⁻¹ and the kon was determined as 400000 M⁻¹ s⁻¹.

B7: NbhmMMRm8.67 (VHH)
VHH: QVQLQESGGGLVQAGDSLRLSCLATGSMFSINAWGWYRQAPGKQRELVASITSGGGSTEYAESVKGRFTISRDSAKNMLYLQMNSLRPEDTAVYYCNAERWDGYALGYSPNHGSGHRPYNYWGQGTQVTVSS
notes: as for B2
Regarding B7, the binding result in test [3] and in test [4] was “binds” each time.
